The text below walks through data of patent publication US20210102195A1.

In general, pEC50 refers to the negative decadic logarithm of the EC50, by convention in mol/L. Higher therefore signals a small EC50. Broadly, the pKd is −log10 of the Kd, conventionally taken in molar units. A higher pKd goes with a low Kd.

Assay [1] concerns the target human CD3 epsilon (human) (UniProt P07766). Description: flow cytometry (MFI), titration 0.05-100 nM on CD8+ T cells (2903).
Assay [2] shares this target. The assay can be described thus: flow cytometry (MFI), titration 0.05-100 nM on Jurkat cells (2901). (In general: A flow cytometer gives signals particle by particle.)
The target is the same in assay [3]. Description: flow cytometry (MFI), titration 0.05-100 nM; cells not named on the panel, the same value stands for CD8+ T-Cell in FIG. 29F.
The target is the same in assay [4]. The assay can be described thus: biosensor sensorgrams with fits, instrument not named in Example 14; antigen not printed on the panel: taken as human CD3 epsilon because 28G-28I and 28J-28L repeat the same three spots (57, 169, 205) and the text gives 67 nM (28G) for human and 107 nM (28J) for cyno.
The next assay has as its target cyno CD3 epsilon (cyno) (UniProt Q95LI5). The assay can be described thus: biosensor sensorgrams with fits, instrument not named in Example 14; antigen not printed on the panel: taken as cyno CD3 epsilon because 28G-28I and 28J-28L repeat the same three spots (57, 169, 205) and the text gives 67 nM (28G) for human and 107 nM (28J) for cyno.

pEC50, pKd: −log10 of the molar value.

Chain of human CD3 epsilon (human) (P07766 23-126 limits assumed): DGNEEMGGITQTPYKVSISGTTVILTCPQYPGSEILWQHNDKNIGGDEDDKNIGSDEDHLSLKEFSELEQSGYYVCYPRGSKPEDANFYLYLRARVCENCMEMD
Chain of cyno CD3 epsilon (cyno) (Q95LI5 22-117 limits assumed): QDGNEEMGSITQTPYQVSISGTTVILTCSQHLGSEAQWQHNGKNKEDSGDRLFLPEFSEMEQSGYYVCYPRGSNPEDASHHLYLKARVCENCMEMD

For the substance R&D MAB100 (antibody), the pEC50 in assay [1] is 8.52; in assay [2], 9.27; in assay [3], 8.52.
As for muSP34 (antibody), the pKd is above 11.72 in assay [4] and 7.42 in the assay with cyno CD3 epsilon (cyno).
